In paper PMC3082896:

Test system: LdTOP1L/S large subunit (LdTOP1L);LdTOP1L/S small subunit (LdTOP1S) (Leishmania donovani;Leishmania donovani)
Experiment: EMSA

**Q.** For “GAAAAAAGACTTAGAAAAATTTTTA (double strand)”, which binding signal (% of input DNA bound) is on record?
**A.** 79
